{"source": "the supplement of paper PMC10567573", "parents": {"B1": {"name": "SNX8 (parent)", "chain": "RMVPALPPKRMLGADREFIEARRR"}, "B2": {"name": "PHTF1 (parent)", "chain": "RVKLISNKGTETDNDPSCVHPIIK"}}, "data": [{"variants_of": "B1", "experiment": "protein stability index of a GFP-peptide fusion (GPS, HEK-293T) (PSI 1-6); higher = more stable", "details": "c terminus: a fixed tail appended", "values": [{"variant": "RMVPALPPKRMLGADREFIEDRRR", "note": "[A21D]", "protein stability index": 3.83}, {"variant": "RMVPALPPKRMLGADREFKEARRR", "note": "[I19K]", "protein stability index": 4.26}, {"variant": "RMVPALPPKRMLGADREFGEARRR", "note": "[I19G]", "protein stability index": 3.96}, {"variant": "RMVPALPPKRMLGADREFDEARRR", "note": "[I19D]", "protein stability index": 4.41}, {"variant": "RMVPALPPKRMLGADREFAEARRR", "note": "[I19A]", "protein stability index": 4.23}, {"variant": "RMVPALPPKRMLGADREFEEARRR", "note": "[I19E]", "protein stability index": 4.11}, {"variant": "RMVPALPPKRMLGADREFHEARRR", "note": "[I19H]", "protein stability index": 3.35}, {"variant": "RMVPALPPKRMLGADREFPEARRR", "note": "[I19P]", "protein stability index": 4.65}, {"variant": "RMVPALPPKRMLGADREFFEARRR", "note": "[I19F]", "protein stability index": 3.61}, {"variant": "RMVPALPPKRMLGADREFTEARRR", "note": "[I19T]", "protein stability index": 4.39}, {"variant": "RMVPALPPKRMLGADREFSEARRR", "note": "[I19S]", "protein stability index": 3.43}, {"variant": "RMVPALPPKRMLGADREFREARRR", "note": "[I19R]", "protein stability index": 4.16}, {"variant": "RMVPALPPKRMLGADREFCEARRR", "note": "[I19C]", "protein stability index": 3.36}, {"variant": "RMVPALPPKRMLGADREFVEARRR", "note": "[I19V]", "protein stability index": 4.09}, {"variant": "RMVPALPPKRMLGADREFQEARRR", "note": "[I19Q]", "protein stability index": 4.29}, {"variant": "RMVPALPPKRMLGADREFWEARRR", "note": "[I19W]", "protein stability index": 3.82}, {"variant": "RMVPALPPKRMLGADREFMEARRR", "note": "[I19M]", "protein stability index": 3.55}, {"variant": "RMVPALPPKRMLGADREFLEARRR", "note": "[I19L]", "protein stability index": 3.06}, {"variant": "RMVPALPPKRMLGADREFYEARRR", "note": "[I19Y]", "protein stability index": 3.98}, {"variant": "RMVPALPPKRMLGADREFNEARRR", "note": "[I19N]", "protein stability index": 3.73}, {"variant": "RMVPALPPKRMLGADREFIEARKR", "note": "[R23K]", "protein stability index": 4.02}, {"variant": "RMVPALPPKRMLGADREFIEARLR", "note": "[R23L]", "protein stability index": 3.65}, {"variant": "RMVPALPPKRMLGADREFIEARYR", "note": "[R23Y]", "protein stability index": 2.97}, {"variant": "RMVPALPPKRMLGADREFIEARQR", "note": "[R23Q]", "protein stability index": 3.11}, {"variant": "RMVPALPPKRMLGADREFIEARPR", "note": "[R23P]", "protein stability index": 3.66}, {"variant": "RMVPALPPKRMLGADREFIEARWR", "note": "[R23W]", "protein stability index": 1.28}, {"variant": "RMVPALPPKRMLGADREFIEARGR", "note": "[R23G]", "protein stability index": 3.79}, {"variant": "RMVPALPPKRMLGADREFIEARDR", "note": "[R23D]", "protein stability index": 4.53}, {"variant": "RMVPALPPKRMLGADREFIEARHR", "note": "[R23H]", "protein stability index": 2.21}, {"variant": "RMVPALPPKRMLGADREFIEARNR", "note": "[R23N]", "protein stability index": 3.94}, {"variant": "RMVPALPPKRMLGADREFIEARTR", "note": "[R23T]", "protein stability index": 3.56}, {"variant": "RMVPALPPKRMLGADREFIEARFR", "note": "[R23F]", "protein stability index": 1.75}, {"variant": "RMVPALPPKRMLGADREFIEARVR", "note": "[R23V]", "protein stability index": 3.4}, {"variant": "RMVPALPPKRMLGADREFIEARMR", "note": "[R23M]", "protein stability index": 2.4}, {"variant": "RMVPALPPKRMLGADREFIEARER", "note": "[R23E]", "protein stability index": 4.16}, {"variant": "RMVPALPPKRMLGADREFIEARCR", "note": "[R23C]", "protein stability index": 2.95}, {"variant": "RMVPALPPKRMLGADREFIEARIR", "note": "[R23I]", "protein stability index": 2.58}, {"variant": "RMVPALPPKRMLGADREFIEARAR", "note": "[R23A]", "protein stability index": 2.54}, {"variant": "RMVPALPPKRMLGADREFIEARSR", "note": "[R23S]", "protein stability index": 3.56}, {"variant": "RMVPALPPKRMLGADRERIEARRR", "note": "[F18R]", "protein stability index": 4.52}, {"variant": "RMVPALPPKRMLGADREWIEARRR", "note": "[F18W]", "protein stability index": 3.75}, {"variant": "RMVPALPPKRMLGADRECIEARRR", "note": "[F18C]", "protein stability index": 4.45}, {"variant": "RMVPALPPKRMLGADREGIEARRR", "note": "[F18G]", "protein stability index": 4.57}, {"variant": "RMVPALPPKRMLGADRENIEARRR", "note": "[F18N]", "protein stability index": 4.45}, {"variant": "RMVPALPPKRMLGADREIIEARRR", "note": "[F18I]", "protein stability index": 3.85}, {"variant": "RMVPALPPKRMLGADREVIEARRR", "note": "[F18V]", "protein stability index": 4.12}, {"variant": "RMVPALPPKRMLGADREQIEARRR", "note": "[F18Q]", "protein stability index": 4.46}, {"variant": "RMVPALPPKRMLGADREAIEARRR", "note": "[F18A]", "protein stability index": 3.56}, {"variant": "RMVPALPPKRMLGADRETIEARRR", "note": "[F18T]", "protein stability index": 4.2}, {"variant": "RMVPALPPKRMLGADREYIEARRR", "note": "[F18Y]", "protein stability index": 4.07}, {"variant": "RMVPALPPKRMLGADREMIEARRR", "note": "[F18M]", "protein stability index": 3.78}, {"variant": "RMVPALPPKRMLGADRELIEARRR", "note": "[F18L]", "protein stability index": 3.84}, {"variant": "RMVPALPPKRMLGADREDIEARRR", "note": "[F18D]", "protein stability index": 4.08}, {"variant": "RMVPALPPKRMLGADREPIEARRR", "note": "[F18P]", "protein stability index": 4.64}, {"variant": "RMVPALPPKRMLGADREEIEARRR", "note": "[F18E]", "protein stability index": 4.43}, {"variant": "RMVPALPPKRMLGADRESIEARRR", "note": "[F18S]", "protein stability index": 4.38}, {"variant": "RMVPALPPKRMLGADREHIEARRR", "note": "[F18H]", "protein stability index": 4.18}, {"variant": "RMVPALPPKRMLGADREKIEARRR", "note": "[F18K]", "protein stability index": 4.26}, {"variant": "RMVPALPPKRMLGADTEFIEARRR", "note": "[R16T]", "protein stability index": 3.56}, {"variant": "RMVPALPPKRMLGADYEFIEARRR", "note": "[R16Y]", "protein stability index": 2.08}, {"variant": "RMVPALPPKRMLGADIEFIEARRR", "note": "[R16I]", "protein stability index": 2.78}, {"variant": "RMVPALPPKRMLGADHEFIEARRR", "note": "[R16H]", "protein stability index": 3.67}, {"variant": "RMVPALPPKRMLGADLEFIEARRR", "note": "[R16L]", "protein stability index": 2.65}, {"variant": "RMVPALPPKRMLGADNEFIEARRR", "note": "[R16N]", "protein stability index": 4.39}, {"variant": "RMVPALPPKRMLGADFEFIEARRR", "note": "[R16F]", "protein stability index": 1.96}, {"variant": "RMVPALPPKRMLGADMEFIEARRR", "note": "[R16M]", "protein stability index": 3.55}, {"variant": "RMVPALPPKRMLGADKEFIEARRR", "note": "[R16K]", "protein stability index": 3.71}, {"variant": "RMVPALPPKRMLGADGEFIEARRR", "note": "[R16G]", "protein stability index": 3.88}, {"variant": "RMVPALPPKRMLGADSEFIEARRR", "note": "[R16S]", "protein stability index": 3.91}, {"variant": "RMVPALPPKRMLGADVEFIEARRR", "note": "[R16V]", "protein stability index": 3.62}, {"variant": "RMVPALPPKRMLGADPEFIEARRR", "note": "[R16P]", "protein stability index": 4.33}, {"variant": "RMVPALPPKRMLGADWEFIEARRR", "note": "[R16W]", "protein stability index": 2.42}]}, {"variants_of": "B2", "experiment": "protein stability index of a GFP-peptide fusion (GPS, HEK-293T) (PSI 1-6); higher = more stable", "details": "c terminus: a fixed tail appended", "values": [{"variant": "RDKLISNKGTETDNDPSCVHPIIK", "note": "[V2D]", "protein stability index": 4.54}, {"variant": "RFKLISNKGTETDNDPSCVHPIIK", "note": "[V2F]", "protein stability index": 3.26}, {"variant": "RVKLISNKGTETDNAPSCVHPIIK", "note": "[D15A]", "protein stability index": 3.8}, {"variant": "RVKLISNKGFETDNDPSCVHPIIK", "note": "[T10F]", "protein stability index": 3.1}, {"variant": "FVKLISNKGTETDNDPSCVHPIIK", "note": "[R1F]", "protein stability index": 2.21}, {"variant": "TVKLISNKGTETDNDPSCVHPIIK", "note": "[R1T]", "protein stability index": 4.2}, {"variant": "LVKLISNKGTETDNDPSCVHPIIK", "note": "[R1L]", "protein stability index": 3.51}, {"variant": "RVKLISNKGTETDVDPSCVHPIIK", "note": "[N14V]", "protein stability index": 4.26}, {"variant": "RVKLISNKGTETDNDPSCGHPIIK", "note": "[V19G]", "protein stability index": 3.89}, {"variant": "RVKLISNKGTETDNDPSCVHPIIS", "note": "[K24S]", "protein stability index": 3.82}, {"variant": "RVKLISNKGTETDNDPSCVHPIIN", "note": "[K24N]", "protein stability index": 4.26}, {"variant": "RVKLISNKGTETDNDPSCVHPIKK", "note": "[I23K]", "protein stability index": 4.74}, {"variant": "RVKLISNKGTLTDNDPSCVHPIIK", "note": "[E11L]", "protein stability index": 3.41}, {"variant": "RVKLISRKGTETDNDPSCVHPIIK", "note": "[N7R]", "protein stability index": 3.47}, {"variant": "RVKLISNKGTESDNDPSCVHPIIK", "note": "[T12S]", "protein stability index": 4.09}, {"variant": "RVKLITNKGTETDNDPSCVHPIIK", "note": "[S6T]", "protein stability index": 3.95}, {"variant": "RVKLIWNKGTETDNDPSCVHPIIK", "note": "[S6W]", "protein stability index": 2.86}, {"variant": "RVMLISNKGTETDNDPSCVHPIIK", "note": "[K3M]", "protein stability index": 3.67}, {"variant": "RVVLISNKGTETDNDPSCVHPIIK", "note": "[K3V]", "protein stability index": 3.29}, {"variant": "RVKLISNKGTETDNDPSDVHPIIK", "note": "[C18D]", "protein stability index": 4.46}, {"variant": "RVKWISNKGTETDNDPSCVHPIIK", "note": "[L4W]", "protein stability index": 4.24}, {"variant": "RVKDISNKGTETDNDPSCVHPIIK", "note": "[L4D]", "protein stability index": 4.18}]}]}
